Assay results as given in US20210115146A1 (WUXI BIOLOGICS IRELAND, published 2021).
“And” between values parts separate entries of the source, which are not always exact repeats. Identical values can stand only once.

B1: W5626-2C2-z22 (humanized VHH of W5626-2C2 further comprising a human Fc of IgG1 isotype) (Fc fusion)
chain: EVQLVESGGGLVQPGGSLRLSCAASGRTHSNYVMGWFRQAPGQEREFVAGISRTYGNTYYRDSVEGRFTISRDNSKNTLYLQMNSLRAEDTAVYYCAADPTRSEVILTTSHRYVYWGQGTLVTVSS
notes: Bivalent humanized VHH linked with human IgG1 Fc region; not shown: human IgG1 Fc region from a modified pcDNA3.3 vector
B2: W5626-2C10-z5 (humanized VHH of W5626-2C10 further comprising a human Fc of IgG1 isotype) (Fc fusion)
chain: AVQLVESGGGLVQPGGSLTLSCAASGRTFSSYAMGWFRQAPGKEREFVAADRWSGGNTRYADSVKGRFTISRDNAKNTLYLQMNSLRAEDTAVYYCAATYLSSDYEWGVPPKAYDYDYWGQGTLVTVSS
notes: as for B1

Legend:
[1] = molecular target: T1, human EGFR (cell surface) (human, UniProt P00533 25-1210); assay: FACS on cells carrying human EGFR
T1 construct: whole, on cells; also called W562-CHO-K1.hPro1.E9 cells; A431 cells
Description: (§1) The binding of antibodies to cell surface EGFR was assessed by FACS with EGFR transfected cells and A431 cell line, which over expresses human EGFR. 1×10⁵ cells/well were plated in a 96-well plate and centrifuged at 210 g for 5 minutes at 4° C. After removing the supernatant, the cell pellets were re-suspended with serial dilutions of testing purified antibodies in 1% BSA-PBS and incubated for 1 hour at 4° C., followed by incubation with FITC conjugated goat anti-human IgG (Jackson ImmunoResearch) at 4° C. for 1 hour. Two times of washing with 200 μl/well 1% BSA-PBS were applied between each step. Finally, the cells were resuspended in 100 μl 1% BSA-PBS for flow cytometry analysis (Intellicyt).

[2] = molecular target: T2, Macaca fascicularis EGFR (cell surface) (Macaca fascicularis, UniProt A0A2K5WK39 25-1210); assay: FACS on cells expressing monkey EGFR
T2 construct: whole, on cells; also called monkey EGFR; cyno EGFR
Description: as §1

[3] = molecular target: T3, mouse EGFR (cell surface) (mouse, UniProt Q01279 25-1210); assay: FACS on cells expressing mouse EGFR
T3 construct: whole, on cells; also called W562-CHO-K1.mProl.F3 cells
Description: as §1

[4] = molecular target: T1, human EGFR (cell surface); assay: cell-based or functional assay
[5] = molecular target: T1, human EGFR (cell surface); assay: FACS competition with EGF-biotin (50 ng/ml) on A431 cells
Description: EGFR-expressing A431 cells were routinely maintained in DMEM containing 10% FBS, 10 mM HEPES and L-glutamine. 10⁵ cells per well were added to each well of a 96-well plate and centrifuged at 210 g for 5 minutes at 4° C. before the supernatant was removed. Serial dilutions of test antibodies were added to the pelleted cells and incubated for 1 hour at 4° C. […] MFI of the cells was measured by flow cytometry and analyzed by FlowJo.

[6] = molecular target: T1, human EGFR (cell surface); assay: FACS binding to A431 cells (printed 'A432' in paragraph 253) after 0, 1, 4, 7 and 14 days in human serum at 37 C; upper panel
Description: (§2) Freshly collected human blood was incubated in polystyrene tubes without anticoagulant for 30 minutes at room temperature. The Serum was collected after centrifugation the blood at 4000 rpm for 10 minutes. Repeat the centrifugation until the serum was clarifying. Gently mix antibodies with serum and ensure the serum content >95%. The mix aliquots were incubated at 37° C. for 0 day, 1 day, 4 days, 7 days and 14 days, respectively. At the indicated time point the samples were quickly-frozen in liquid nitrogen and stored at −80° C. until analysis. The cell bindings of the serial dilutions of the antibody samples to A432 cells were analyzed by FACS. Four-parameter non-linear regression analysis was used to obtain EC₅₀ values for cell binding using GraphPad Prism 5 software (GraphPad Software, La Jolla, Calif.).

[7] = molecular target: T1, human EGFR (cell surface); assay: FACS affinity on transfected cells, quantitative beads
Description: (§3) Human, cyno, mouse EGFR and human EGFRvIII transfected cells were transferred in to 96-well U-bottom plates (BD) at a density of 5×10⁴ cells/well, respectively. Testing antibodies were 1:3.16-fold serially diluted in 1% BSA-PBS and incubated with the cells at 4° C. for 1 hr. The secondary antibody, Alexa647 conjugated goat anti-human IgG Fc (Jackson Immunoresearch Lab), was added to resuspended cells and incubated at 4° C. in the dark for 1 hr. The cells were then washed once and resuspended in PBS with 1% BSA, and analyzed by flow cytometery (BD). Fluorescence intensity was converted to bound molecules/cell based on the quantitative beads (Quantum™ MESF Kits, Bangs Laboratories). KD was calculated using Graphpad Prism5.

[8] = molecular target: T3, mouse EGFR (cell surface); assay: as above
Description: as §3

[9] = molecular target: T2, Macaca fascicularis EGFR (cell surface); assay: as above
Description: as §3

[10] = molecular target: T4, human EGFRvIII (cell surface) (human, UniProt P00533 25-1210); assay: as above
T4 construct: whole, on cells; also called hEGFRIII; EGFR variant III
Description: as §3

[11] = molecular target: T5, human EGFR ECD protein (W562-hPro1.ECD.his) (human, UniProt P00533 25-645); assay: SPR (ProteOn XPR36), antibody captured by anti-human IgG Fc, EGFR ECD.his as analyte
T5 construct: extracellular domain; Made in HEK293 cells
Description: Each antibody was captured on an anti-human IgG Fc antibody immobilized GLM sensor chip (Bio-Rad). W562-hPro1.ECD.his at different concentrations was injected over the sensor chip at a flow rate of 100 uL/min for an association phase of 240 s, followed by 1800 s dissociation. The chip was regenerated by 10 mM glycine (pH 1.5) after each binding cycle. The sensorgrams of blank surface and buffer channel were subtracted from the test sensorgrams. The experimental data was fitted by 1:1 binding model using Langmiur analysis. Molecular weight of 85 kDa was used to calculate the molar concentration of analyte.

[12] = molecular target: T1, human EGFR (cell surface); assay: FACS binding to A431 cells (printed 'A432' in paragraph 253) after 0, 1, 4, 7 and 14 days in human serum at 37 C; lower panel
Description: as §2

| Binder | EC50 [1] | EC50 [2] | EC50 [3] | EC50 of EGFR internalization (Fab-ZAP, viability of A431 cells) [4] | IC50 of inhibition of EGFR phosphorylation (pEGFR sandwich ELISA, A431 cells stimulated with EGF) [4] | IC50 [5] | EC50 (read off the curve) [6] | Bmax [7] | Kd [7] | Bmax [8] | Kd [8] | Bmax [9] | Kd [9] | Bmax [10] | Kd [10] | Kd [11] | koff [11] | kon [11] | EC50 (read off the curve) [12] |
| --- | --- | --- | --- | --- | --- | --- | --- | --- | --- | --- | --- | --- | --- | --- | --- | --- | --- | --- | --- |
| B1 | 0.83 nM | 0.25 nM | 0.65 nM | 0.17 nM | 22.6 nM and 10.4 nM | 1.35 nM | ~0.9 nM | 860 pM | 1.1 nM | 1000 pM | 0.51 nM | 230 pM | 0.26 nM | 530 pM | 0.24 nM | 3.22 nM | 0.00209 s⁻¹ | 649000 M⁻¹ s⁻¹ | – |
| B2 | 0.99 nM | 0.58 nM | 1.06 nM | 0.21 nM | 10.4 nM and 22.6 nM | 2.58 nM | – | 920 pM | 1.4 nM | 890 pM | 0.54 nM | 230 pM | 0.23 nM | 590 pM | 0.32 nM | 0.162 nM | 0.000105 s⁻¹ | 646000 M⁻¹ s⁻¹ | ~0.8 nM |
